According to PMC2174947, “Transcriptional regulation of human eosinophil RNases by an evolutionary- conserved sequence motif in primate genome”:

Target: T1, GST-MAZ (UniProt P56270 1-477)
T1 sequence: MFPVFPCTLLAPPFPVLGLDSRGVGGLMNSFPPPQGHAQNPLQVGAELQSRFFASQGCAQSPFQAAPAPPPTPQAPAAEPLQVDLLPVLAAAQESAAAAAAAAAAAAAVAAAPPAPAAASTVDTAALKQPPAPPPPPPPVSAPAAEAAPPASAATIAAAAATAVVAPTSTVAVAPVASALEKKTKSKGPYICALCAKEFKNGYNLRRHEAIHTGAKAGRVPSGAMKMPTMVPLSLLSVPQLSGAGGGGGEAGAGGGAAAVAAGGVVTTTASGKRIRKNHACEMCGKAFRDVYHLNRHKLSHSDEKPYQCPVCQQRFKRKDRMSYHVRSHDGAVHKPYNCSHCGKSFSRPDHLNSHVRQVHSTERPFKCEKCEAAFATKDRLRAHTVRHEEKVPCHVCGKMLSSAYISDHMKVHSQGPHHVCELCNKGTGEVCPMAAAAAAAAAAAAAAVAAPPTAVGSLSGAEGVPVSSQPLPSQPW
Assay: EMSA; EMSA: 10 mM Tris-HCl pH 7.5, 50 mM NaCl, 5 mM MgCl2, 1 mM EDTA, 10% glycerol, 1 ug poly(dI-dC), 30 C 30 min; DAPA: 20 mM HEPES pH 7.6, 10 mM (NH4)2SO4, 1 mM EDTA, 1 mM DTT, 1% Tween 20, 100 mM KCl, 4 C
Details: protein: recombinant; label: 32P 5' end; blunt

B1: wt 34-nt EMSA probe (dsDNA)
DNA 1: GCCAAGAGCCAGACCCTCCCTCTGGGCTCTGCTGGCCCA
DNA 2: TGGGCCAGCAGAGCCCAGAGGGAGGGTCTGGCTCTTGGC
- binding result: binds
